Data from paper PMC2275104 (Nucleic Acids Research, 2008).

Biological target: the molecule itself
Assay: SEC

Protein | stoichiometry N
Methanothermobacter thermautotrophicus MCM protein, wild-type (enzyme, UniProt O27798 1-666, looked up) MMKTVDKSKTLTKFEEFFSLQDYKDRVFEAIEKYPNVRSIEVDYLDLEMFDPDLADLLIEKPDDVIRAAQQAIRNIDRLRKNVDLNIRFSGISNVIPLRELRSKFIGKFVAVDGIVRKTDEIRPRIVKAVFECRGCMRHHAVTQSTNMITEPSLCSECGGRSFRLLQDESEFLDTQTLKLQEPLENLSGGEQPRQITVVLEDDLVDTLTPGDIVRVTGTLRTVRDERTKRFKNFIYGNYTEFLEQEFEELQISEEDEEKIKELAGDPNIYEKIIRSTAPSIHGYREVKEAIALQLFGGTGKELDDKTRLRGDIHILIVGDPGIGKSQMLKYVSKLAPRGIYTSGKGTSGVGLTAAAVRDEFGGWSLEAGALVLGDKGNVCVDELDKMREEDRSAIHEALEQQTISIAKAGIMATLNSRCSVLAAANPKFGRFDSYKSIAEQIDLPSTILSRFDLIFVVEDKPDEEKDRELARHILKTHKEDHMPFEIDPELLRKYIAYARKNVRPVLTDEAMQVLEDFYVSMRASAADEDSPVPITARQLEALVRLSEASAKIKLKEHVEAEDARKAIKLSQACLKQVGYDPETGKIDIDKVEGRTPKSERDKFRLLLELIKEYEDDYGGRAPTNILITEMMDRYNVSEEKVEELIRILKDKGAIFEPARGYLKIV | 12
Methanothermobacter thermautotrophicus MCM protein, Q181A mutant (enzyme, UniProt O27798 1-666, looked up) MMKTVDKSKTLTKFEEFFSLQDYKDRVFEAIEKYPNVRSIEVDYLDLEMFDPDLADLLIEKPDDVIRAAQQAIRNIDRLRKNVDLNIRFSGISNVIPLRELRSKFIGKFVAVDGIVRKTDEIRPRIVKAVFECRGCMRHHAVTQSTNMITEPSLCSECGGRSFRLLQDESEFLDTQTLKLAEPLENLSGGEQPRQITVVLEDDLVDTLTPGDIVRVTGTLRTVRDERTKRFKNFIYGNYTEFLEQEFEELQISEEDEEKIKELAGDPNIYEKIIRSTAPSIHGYREVKEAIALQLFGGTGKELDDKTRLRGDIHILIVGDPGIGKSQMLKYVSKLAPRGIYTSGKGTSGVGLTAAAVRDEFGGWSLEAGALVLGDKGNVCVDELDKMREEDRSAIHEALEQQTISIAKAGIMATLNSRCSVLAAANPKFGRFDSYKSIAEQIDLPSTILSRFDLIFVVEDKPDEEKDRELARHILKTHKEDHMPFEIDPELLRKYIAYARKNVRPVLTDEAMQVLEDFYVSMRASAADEDSPVPITARQLEALVRLSEASAKIKLKEHVEAEDARKAIKLSQACLKQVGYDPETGKIDIDKVEGRTPKSERDKFRLLLELIKEYEDDYGGRAPTNILITEMMDRYNVSEEKVEELIRILKDKGAIFEPARGYLKIV | 12
Methanothermobacter thermautotrophicus MCM protein, E182R mutant (enzyme, UniProt O27798 1-666, looked up) MMKTVDKSKTLTKFEEFFSLQDYKDRVFEAIEKYPNVRSIEVDYLDLEMFDPDLADLLIEKPDDVIRAAQQAIRNIDRLRKNVDLNIRFSGISNVIPLRELRSKFIGKFVAVDGIVRKTDEIRPRIVKAVFECRGCMRHHAVTQSTNMITEPSLCSECGGRSFRLLQDESEFLDTQTLKLQRPLENLSGGEQPRQITVVLEDDLVDTLTPGDIVRVTGTLRTVRDERTKRFKNFIYGNYTEFLEQEFEELQISEEDEEKIKELAGDPNIYEKIIRSTAPSIHGYREVKEAIALQLFGGTGKELDDKTRLRGDIHILIVGDPGIGKSQMLKYVSKLAPRGIYTSGKGTSGVGLTAAAVRDEFGGWSLEAGALVLGDKGNVCVDELDKMREEDRSAIHEALEQQTISIAKAGIMATLNSRCSVLAAANPKFGRFDSYKSIAEQIDLPSTILSRFDLIFVVEDKPDEEKDRELARHILKTHKEDHMPFEIDPELLRKYIAYARKNVRPVLTDEAMQVLEDFYVSMRASAADEDSPVPITARQLEALVRLSEASAKIKLKEHVEAEDARKAIKLSQACLKQVGYDPETGKIDIDKVEGRTPKSERDKFRLLLELIKEYEDDYGGRAPTNILITEMMDRYNVSEEKVEELIRILKDKGAIFEPARGYLKIV | 12
Methanothermobacter thermautotrophicus MCM protein, L184A mutant (enzyme, UniProt O27798 1-666, looked up) MMKTVDKSKTLTKFEEFFSLQDYKDRVFEAIEKYPNVRSIEVDYLDLEMFDPDLADLLIEKPDDVIRAAQQAIRNIDRLRKNVDLNIRFSGISNVIPLRELRSKFIGKFVAVDGIVRKTDEIRPRIVKAVFECRGCMRHHAVTQSTNMITEPSLCSECGGRSFRLLQDESEFLDTQTLKLQEPAENLSGGEQPRQITVVLEDDLVDTLTPGDIVRVTGTLRTVRDERTKRFKNFIYGNYTEFLEQEFEELQISEEDEEKIKELAGDPNIYEKIIRSTAPSIHGYREVKEAIALQLFGGTGKELDDKTRLRGDIHILIVGDPGIGKSQMLKYVSKLAPRGIYTSGKGTSGVGLTAAAVRDEFGGWSLEAGALVLGDKGNVCVDELDKMREEDRSAIHEALEQQTISIAKAGIMATLNSRCSVLAAANPKFGRFDSYKSIAEQIDLPSTILSRFDLIFVVEDKPDEEKDRELARHILKTHKEDHMPFEIDPELLRKYIAYARKNVRPVLTDEAMQVLEDFYVSMRASAADEDSPVPITARQLEALVRLSEASAKIKLKEHVEAEDARKAIKLSQACLKQVGYDPETGKIDIDKVEGRTPKSERDKFRLLLELIKEYEDDYGGRAPTNILITEMMDRYNVSEEKVEELIRILKDKGAIFEPARGYLKIV | 12
Methanothermobacter thermautotrophicus MCM protein, E185R mutant (enzyme, UniProt O27798 1-666, looked up) MMKTVDKSKTLTKFEEFFSLQDYKDRVFEAIEKYPNVRSIEVDYLDLEMFDPDLADLLIEKPDDVIRAAQQAIRNIDRLRKNVDLNIRFSGISNVIPLRELRSKFIGKFVAVDGIVRKTDEIRPRIVKAVFECRGCMRHHAVTQSTNMITEPSLCSECGGRSFRLLQDESEFLDTQTLKLQEPLRNLSGGEQPRQITVVLEDDLVDTLTPGDIVRVTGTLRTVRDERTKRFKNFIYGNYTEFLEQEFEELQISEEDEEKIKELAGDPNIYEKIIRSTAPSIHGYREVKEAIALQLFGGTGKELDDKTRLRGDIHILIVGDPGIGKSQMLKYVSKLAPRGIYTSGKGTSGVGLTAAAVRDEFGGWSLEAGALVLGDKGNVCVDELDKMREEDRSAIHEALEQQTISIAKAGIMATLNSRCSVLAAANPKFGRFDSYKSIAEQIDLPSTILSRFDLIFVVEDKPDEEKDRELARHILKTHKEDHMPFEIDPELLRKYIAYARKNVRPVLTDEAMQVLEDFYVSMRASAADEDSPVPITARQLEALVRLSEASAKIKLKEHVEAEDARKAIKLSQACLKQVGYDPETGKIDIDKVEGRTPKSERDKFRLLLELIKEYEDDYGGRAPTNILITEMMDRYNVSEEKVEELIRILKDKGAIFEPARGYLKIV | 12
Methanothermobacter thermautotrophicus MCM protein, G190A mutant (enzyme, UniProt O27798 1-666, looked up) MMKTVDKSKTLTKFEEFFSLQDYKDRVFEAIEKYPNVRSIEVDYLDLEMFDPDLADLLIEKPDDVIRAAQQAIRNIDRLRKNVDLNIRFSGISNVIPLRELRSKFIGKFVAVDGIVRKTDEIRPRIVKAVFECRGCMRHHAVTQSTNMITEPSLCSECGGRSFRLLQDESEFLDTQTLKLQEPLENLSGAEQPRQITVVLEDDLVDTLTPGDIVRVTGTLRTVRDERTKRFKNFIYGNYTEFLEQEFEELQISEEDEEKIKELAGDPNIYEKIIRSTAPSIHGYREVKEAIALQLFGGTGKELDDKTRLRGDIHILIVGDPGIGKSQMLKYVSKLAPRGIYTSGKGTSGVGLTAAAVRDEFGGWSLEAGALVLGDKGNVCVDELDKMREEDRSAIHEALEQQTISIAKAGIMATLNSRCSVLAAANPKFGRFDSYKSIAEQIDLPSTILSRFDLIFVVEDKPDEEKDRELARHILKTHKEDHMPFEIDPELLRKYIAYARKNVRPVLTDEAMQVLEDFYVSMRASAADEDSPVPITARQLEALVRLSEASAKIKLKEHVEAEDARKAIKLSQACLKQVGYDPETGKIDIDKVEGRTPKSERDKFRLLLELIKEYEDDYGGRAPTNILITEMMDRYNVSEEKVEELIRILKDKGAIFEPARGYLKIV | 12
Methanothermobacter thermautotrophicus MCM protein, P193G mutant (enzyme, UniProt O27798 1-666, looked up) MMKTVDKSKTLTKFEEFFSLQDYKDRVFEAIEKYPNVRSIEVDYLDLEMFDPDLADLLIEKPDDVIRAAQQAIRNIDRLRKNVDLNIRFSGISNVIPLRELRSKFIGKFVAVDGIVRKTDEIRPRIVKAVFECRGCMRHHAVTQSTNMITEPSLCSECGGRSFRLLQDESEFLDTQTLKLQEPLENLSGGEQGRQITVVLEDDLVDTLTPGDIVRVTGTLRTVRDERTKRFKNFIYGNYTEFLEQEFEELQISEEDEEKIKELAGDPNIYEKIIRSTAPSIHGYREVKEAIALQLFGGTGKELDDKTRLRGDIHILIVGDPGIGKSQMLKYVSKLAPRGIYTSGKGTSGVGLTAAAVRDEFGGWSLEAGALVLGDKGNVCVDELDKMREEDRSAIHEALEQQTISIAKAGIMATLNSRCSVLAAANPKFGRFDSYKSIAEQIDLPSTILSRFDLIFVVEDKPDEEKDRELARHILKTHKEDHMPFEIDPELLRKYIAYARKNVRPVLTDEAMQVLEDFYVSMRASAADEDSPVPITARQLEALVRLSEASAKIKLKEHVEAEDARKAIKLSQACLKQVGYDPETGKIDIDKVEGRTPKSERDKFRLLLELIKEYEDDYGGRAPTNILITEMMDRYNVSEEKVEELIRILKDKGAIFEPARGYLKIV | 12
